Results: the nanobody polyreactivity screen of Harvey et al. (2022)

Assay: yeast display, Sf9 membrane polyspecificity reagent, FACS + sequencing; frameworks hold sequencing errors
Method in brief: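 Using colony PCR, genes from sorted yeast display clones were amplified, then sequenced on MiSeq at 2 × 250 and filtered by CDR length. The clones had been stained with 10% biotinylated, detergent-solubilized Sf9 membrane reagent for 1 hour at 4 °C and sorted by FACS into low and high (top ~1%) gates on anti-HA and streptavidin fluorescence. Polyreactivity labels come from the gate of origin.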

Sequence	polyreactivity (PSR sort gate)
QVQHLESRGGLVQAGGSLRLSCAASGSIFASNAMGWYRPAPGKEREFVAAITWRTDRTYYADSVKGRYTISRDIAKNTVYLQMNSLKPEDTAVYYCNAGRRVYYYSAYYGGGYWGQGTQVTVSS	high polyreactivity
QVQLVESGGGLVQAGGSLRLSCAASGSTFTDYDMGWYRQAPGKERELVAAITSGGSTNYADSVKGRFTISRDNAKNTVYLQMNSLKPEDTAVYYCAAADADRKYDYWGQGTQVTVSS	low polyreactivity
QVQLVESGGGLVQAGGSLSLSCAASGSIFKFNTMGWSRQAPRKERELVAAISRSGGSTYYADSVKGRFTISRDNAKNNVYLQMNSLKPEDTAVYYCAARQFSGPYVRYGYWGQGTQVSVSS	high polyreactivity
QVQLVESGGGLVQAGGSLRLSCAASGFTFGWYAMGWYRPAPGKERELVAAISSTGGRTYYADSVKGRFTISRDNAKNTVYLQMNSLKPEDTAVYYCAAAYSYGTEYGYWGQGTQVTVSS	high polyreactivity
QVQLVESGGGLVQAGGSLRLSCAATGFIFRYYAMGWYSQAPGKERELVATISSGGGTHYADSVKGRYSISRDNAKNTVYLKMNSLKPEDTAVYYCNARGYRRLRTRVDYWGQGTQVTVSS	high polyreactivity
QVQLVESGGGLVQAGGSLRLSCAASGIIFINYAMGWYRQAPGTERELVAVITRGGSTYYADSVKGRFTISRDNAKNTVYLQMNSLKPEDTAVYYCNARYLSWWTGRFNYWGQGTQVTVSS	high polyreactivity
QVQLVESGGGLVQAGGSLRLSCAASGSTFDSYAMGWYRPAPGKERELVAAITDSGSSTYYADSVKGRFTISRDNAKNTVYLQMNSLKPEDTAVYYCATYDYHGWSYYRYDYWGQGTQVTVSS	low polyreactivity
QEQLLESGGGLVQAGGSLRLSCAASGYISSHIMSWYRQAPGKEREFVDTITDGGTTNYADSVKGRFTISRDNAKNTVYLQMNSLKPEDTAVYYCAAVATYSYHFGYWGHGTQVTVSS	high polyreactivity
QFHHVESGGGLVQAGCSLRLSCGASGLTSAIYVMGLYRQAPGKEREFVADITWNAGSTYYADSVQGRFTISRDNAKNTVYVEMKSLKPEDTAVYYCNAYIVSGFYEYDFWGQGTQVTVSS	high polyreactivity
QVQLQESGGGLMQAGGNLRLSCAASGYISTHYDMDWYRQAPGKERELVARIDDGAITNYADSVKGRFTISRDNAKKTVYLQMNSLKPEDTAVYYCAVYYGDEYYHDYWGQGTQVTVSS	low polyreactivity
QVQLVESGGGLVQAGGSLRLSCAASGFIFWFYAMGWYRQAPGKEREFVATISRGGSKNYADSVKGRFTISRDNAKNTVYFKINSLKAEDTEVYYCAAARSSYWKTIRAFTMDYWGQGTQVTVSS	high polyreactivity
QVQLVESGGGLVQAGGSLRLSCAASGRTFGVYAMGWYRQAPGKERELVASISRSGGSTYYADSVKGRFTISRDNAKNTVYLQMNSLKPEDTAVYYCAAVYKRGMDYWGQGTQVTVSS	high polyreactivity
QVQLVESGGGLVQAGGSLRLSCAASGSIFPIYAMGWYRPAPGKERELVAAINRSGGSTYYADSVKGRFTISRDNAKNTVYLQMNSLKPEDTAVYYCNADYGYHNQLFWGYYGWSSDHWGQGTQVTVSS	low polyreactivity
QVQLVESGGGLVQAGGSLRLSCAASGSIFRRNTMGWYRQAPGKERELVAAISTRGGSTYYADSVKGRFTISRDNAKNTVYLQMNSLKPEDTAVYYCNTRGYYIVHRGYDYWGQGTQVTVSS	high polyreactivity
QVQLVESGGGLVQAGGSLRLSCAASGRIFLFYAMGWYRQAPGKERELVASITSSGGDTSYYADSVKGRFTISLDNAKNTVYLQMNSLKPEDNAVYYCASRPWTSWRYYYWGQGTQVTVSS	high polyreactivity
QVQLVESGGGLVQAGGSLRLSCAASGSTFYLYDMGWYRQAPGKEREMVAAISWSSGSTYYADSVKGRFTISRDNAKNTVYLQMNSLKPEETAVYYCAAGPSDTEYWLFDYWGQGTQVTVSS	high polyreactivity
QVQLVESGGGLVQAGGSLRLTCAASGSTFGSYAMGRYRQAPGKERELVAVAISWSGGNTYYADSVKGRFTNSRDNAKNTFYLQMNSLKPEDTAVYYFAAYGTTGVYRGPGYDYWGQGTQVTVSS	low polyreactivity
QVQLVESGGGLVQAGGSLRLSCAGSGRIFGGYAMGWYRQAPGTERELVAAISRRGGSTYYADSVKGRFTISRDNAKNTVYLQMNSLKPEDTAVYYCARDYGGVGAPGSAGAYDYWGQGTQVTVSS	high polyreactivity
QVQLVESGGGLVQAGGSLRLSCAASGLTFKRNAMGWYRQAPGKERELVAAIRYSTDSTNYADSVKGRFTISRDNAMYTVYLQMNSLKPEDTAVYYCAKDKQDYEYWGQGTQVTVSS	low polyreactivity
QVQLVESGGGLVQAGGSLRLSCAASGRTFYSNAMGWYRQAPGKERELVAAIRRSRGRTYYADSVKGRFTISRDIAKNTVYLQMNSLKPEDTAVYYCATARYRAEMGYWGQGTQVTVSS	high polyreactivity
QVQLVESGGGFVQAGGSLRLSCAASGSIFDQYAMGWSRQAPGKERELVAGISSSGSTYADSVKGRFTISRDNAKNTVYLQMNSLKPEDTAVYSCAKDYGVLGGGTGSDRMDYWGQGSQVTVSS	low polyreactivity
QVQLVESGGGLVQAGGSLRLSCAASGFTLKYYAMGWYRQAPGKERELVAAITSSGGSTYYADSVKGRFTISRDNAKNTVYLQMNSLKPEDTAVYYCNAVTVYKHGSWGQGTQVTVSS	high polyreactivity

Sequence	polyreactivity (PSR sort gate)
QVQLVESGGGLVQAGGSLRLSCAASGSIFKDYAMGWYRQAPGKERELVASITSGGRTYADSVKGRFTISRDNAKNTVYLQMNSLKPEDTAVYYCNTAHSKAWQYDYWGQGTQVTVSS	high polyreactivity
QVQLVESGGGLVQAGGSLRISCAASGSTFASTALGRYRLAAGKEMELVASISGSGGSTFYADSVKGRFTISRDNAKNTVYLQMNSLKPEDTEVYYCAAYKEPYYEEYGYGGQGTQVTVSS	low polyreactivity
QVQLVESGGGLVQAGGSLRLSCAASGSIFNTYAMGWYRQAPGKERELVAAISRSGDSTYYADSVKGRFTISRDNAKNTVYLQMNSLKPEDTAVYYCATGRTDHGYYYWGQGTQVTVSS	high polyreactivity
QVQLVESGGGLVQAGGSLRLSCAASGNTFLPYAMGWYRQAPGKERELVAAISWSGGSTYYADSVKGRFTISRDNAKNTVYLQMNSLKPEDTAVYYCARRGYQRYLSSYYYWGQGTQVTVSS	high polyreactivity
QVQLVESGGGLVHAGCSLRLSCAASGFTFKYYAMGWYRQPPGKEREIVAAISYSGGRTYYADSVKGRFTISRDNAKNTVYLQMNSLKPEDTAVYYCATDDVWKDGYWGQGTQVTVSS	low polyreactivity
QVQLVESGGGLVQAGGSLRLSCAASGRNFSSYALGWYRQAPGKERELVAAIRYDAGSTYYADSVKGRFTISRDNAKNTVYLQMNSLKPEDTAVYYCAAGIYSSRHSPYGYWGQGTQVTVSS	high polyreactivity
QVQLVESVVGLVQAGGSLRLSCADSGSTFRSNAMGWYRQAPGKETELVAGITSGTSTNYADSVKGRFTISRDNAKNTVYLQMNSLKPEDTAVYYCNTDRIWYGPEYDFWGQGTQVTVSS	low polyreactivity
QVQLVETGGGLVQAGGSLRLSCAASGRTFARNAMGWYRQAPGKERELVAAISRRGGNTYYADSVKGRFTISRDNAKNTVYLQMNSLKPEDTAVYYCAVRWPSARIPVKLDYWGQGTQVTVSS	high polyreactivity
QVQLVESGGGLVQAGGSLRLSCAASGFTFSYNSMGRYRQATAKERELVARISRTGGSTNYADSVKGRFTISRDNAKNTVYLQMNSLKPEDTAVYYCATGYRYTYGSWGQGTQVTVSS	high polyreactivity
QFQLVESGGGLVQAGGSLRLSCAAYGFTFYAYTMGWYRQAPGKERELVAAIRTGSSTYYADSVKGRFTISRDNAKNTVYLQMNSMKPQDTAVYYCAAPRWRRPYRYDYWGQGTQVTVSS	high polyreactivity
QVQLVESGGGLVQAGGSLRFSCAASGRTFQYYTMGWSRQAPGKEREFVAAIRDSGGSTYYADSVKGRFTISRDNAKNTVYLQMNSLKPEDTAVYYCAAYRPRKYDYWGQGTQVTVSS	high polyreactivity
QVQLVESGGGLVQAGGSLRLSCAASGIIFVFNAMGWYRQAPGKERELVAVISTSGDSTYYADSVKGRFTISRDNAKNTVYLQMNSLKPEDTAVYYCAADQRVTYRRGRAYDKYYYWGQGTQVTVSS	low polyreactivity
QVQLEESGGGLVQAGGSLRLSCAASGRIFMTYAMGWYRQAPGKERELVAAITRRGGTTYYADSEKARFTISRDNAKNTVYLQMNCLKPEDTAVYYCAPAKPRVISQNIIYDYWGQGTQVTVSS	high polyreactivity
QVQHVESGGGLVQAGGSLRLSCAASGLTFTAYVMGWYRQAPGKERELVAAIRISGGSTYYADSVKGRFTISRDNAKNTVYLQMKSLQPADTAVYYCATRHRHVTATDSRIGDYWGQGTQVTVSS	low polyreactivity
QVQLVESGGGLVQAGGSLRLSCAASGLIFRLYAMGWYRQAPGKERELVAAISVSGAITYYADSVKGRFTISRDNAKNTVYLLMNSLKPEDTAVYYCNAQAVFRRDGYVYWDVDYWGQGTQVTVSS	low polyreactivity
HVQLVEAGGGLVQAGGSLRLSCAASGSTLQYYAMGWYRQAPGKERELVAAITSTGSRTYYADSVKGRFTISRDNAKNTVYLLMNSLKPADTAVYYCAADIYDGEYDYWGQGTQVTVSS	high polyreactivity
QVQLVESGGGLVQAGGSLRLSCAASGSIFGYNAMGWYRQAPGIERELVAAISSGGNTYYADSVKGRFTISRDNAKNTVYLQMNSLKPEDTAVYYCAVDYYYGFDWGQGTQVTVSS	low polyreactivity
QVKLVESGGGLVQAGGSLRLSCAASGRIFNWYAMGWYRQAPGKERELVARISSGDITSYADSVKGRFTISRDNAKNTVYLQMNSLKPEDTALYYCNDDGFFLNVSPYDYWGQGTQVTVSS	low polyreactivity
QVQLVESGGGLVQAGGSLRLSCAASGSTFKAYAMGWYRQAPGKERELVAAITRRGTSTYYADSVKGRFTISRDNAKNTVYLQMNSLKPEDTAVYYCNAKYVSDRSSAVSFDYWGQGTQVTVSS	low polyreactivity
QVQLVESGGGLVQAGGSLRLSCAASGRTFLTYAMGWYRQAPGKERELVAAITDGDSTNYADSVKGRFTISRDNAKNTVYLQMNSLKPEDTAVYYCNADSLAYRYYYWGKGTQVTVSS	high polyreactivity
QVHLVESVGGLVQAGGSLRLSCAASGRTFHYYAMGWYRQAPGKERELVAGITGGGSTYYADSVKGRFTISRDNAKNTVYLQMNSLKPEDTAVYYCAADRSYYGYGYWGQGTQVTVSS	low polyreactivity
